Target: leptin receptor (LepRb), expressed on transfected HEK293 cells
Test: cell-based or functional assay

cells with a p-STAT3 positive nucleus, immunofluorescence [%]	cells with a p-STAT3 positive nucleus after leptin, immunofluorescence [%]	Substance
> 80	–	leptin (ligand)
–	< 10	recombinant human Batotin protein with a six-amino-acid His tag at its C-terminus (from UniProt Q96GX8 1-76) (ligand)
–	< 10	recombinant mouse Batotin protein (76 aa) with a six-amino-acid His tag at its C-terminus (from UniProt Q8K1L6 1-76) (ligand)

From patent publication US20210162011A1
